B1: Azoarcus group I ribozyme (parent)
chain: GUGCCUUGCGCCGGGAAACCACGCAAGGGAUGGUGUCAAAUUCGGCGAAACCUAAGCGCCCGCCCGGGCGUAUGGCAACGCCGAGCCAAGCUUCGGCGCCUGCGCCGAUGAAGGUGUAGAGACUAGACGGCACCCACCUAAGGCAAACGCUAUGGUGAAGGCAUAGUCCAGGGAGUGGCGAAAGUCACACAAACCGG

The series covers variants of B1. The experiment in a line: reverse-splicing fitness (ratio to wild type); higher = more active; in vitro selection; Mg2+ level not given. A digest of the protocol: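 An in vitro group I ribozyme library with randomized positions was T7-transcribed and gel-purified. In triplicate, 10 pmol RNA in EPPS pH 7.5 was reacted with 50 pmoles of a 30-nt RNA substrate for 1 h at 37 °C across several added MgCl2 levels (1–48 mM), then stopped with EDTA. Products were reverse transcribed from a substrate-complementary primer, PCR-amplified and sequenced (HiSeq 4000). Fitness is a variant's read proportion after selection over that before, normalised to wild type.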
In the case of C82G A111C A120G A145G U176A, the reverse-splicing fitness came to 0.017. Under C82G A111C A120G A145U C150A C169U U176C stands 0.0124; under C82G A111C A120G A145U C150A C169U U176G, 0.00547; under C82G A111C A120G A145U C150A C169U U176A, 0.0169.

For C82G A111C A120G C150U C169U U176A, the reverse-splicing fitness is 0.0146.

Turning to C82G A111C A120G C150U C169U U176G, the reverse-splicing fitness came to 0.00546.

For C82G A111C A120G C150U C169U U176C, the reverse-splicing fitness is 0.0156.

Regarding C82G A111C A120G A145U C150G C169G U176C, the reverse-splicing fitness worked out at 0.00521. With C82G A111C A120G A145U C150G C169G U176G, the reverse-splicing fitness was determined as 0.00512.

Consider C82G A111C A120G A145U C150G C169G U176A, for which the reverse-splicing fitness was 0.0071. Turning to C82G A111C A120G A145U C150A C169G U176C, the reverse-splicing fitness turned out to be 0.0153. Under C82G A111C A120G A145U C150A C169G U176A stands 0.0126; under C82G A111C A120G A145U C150A C169G U176G, 0.00522; under C82G A111C A120G C150G C169U U176A, 0.0081. For C82G A111C A120G C150G C169U U176G, the reverse-splicing fitness turned out to be 0.00589. Under C82G A111C A120G C150G C169U U176C stands 0.0132; under C82G A111C A120G A145U C169A U176C, 0.00997; under C82G A111C A120G A145U C169A U176A, 0.0115.

Consider C82G A111C A120G A145U C169A U176G, for which the reverse-splicing fitness worked out at 0.00439. On to C82G A111C A120G C150U C169G U176A, for which the reverse-splicing fitness turned out to be 0.0141. With C82G A111C A120G C150U C169G U176G, the reverse-splicing fitness turned out to be 0.00537. Consider C82G A111C A120G C150U C169G U176C, for which the reverse-splicing fitness is 0.0187. For C82G A111C A120G A145U U176A the value was 0.016; for C82G A111C A120G A145U U176G, 0.00575. On to C82G A111C A120G A145U U176C, for which the reverse-splicing fitness was 0.0232. As to C82G A111C A120G C150U C169A U176A, the reverse-splicing fitness was 0.0141. Turning to C82G A111C A120G C150U C169A U176G, the reverse-splicing fitness is 0.00607. Under C82G A111C A120G C150U C169A U176C stands 0.0135; under C82G A111C A120G A145U C169G U176A, 0.0117. Under C82G A111C A120G A145U C169G U176G stands 0.00458; under C82G A111C A120G A145U C169G U176C, 0.0132; under C82G A111C A120G C150U C169G, 0.0113. Under C82G A111C A120G C150U C169A stands 0.0111; under C82G A111C A120G C150U C169U, 0.00939. For the variant C82G A111C A120G C150A C169G U176A, the reverse-splicing fitness was determined as 0.0195.

As to C82G A111C A120G C150A C169G U176G, the reverse-splicing fitness is 0.00569. C82G A111C A120G C150A C169G U176C: the reverse-splicing fitness was found to be 0.025.

Consider C82G A111C A120G A145U C150U C169A, for which the reverse-splicing fitness was 0.0101. Turning to C82G A111C A120G A145U C150U C169U, the reverse-splicing fitness stood at 0.00896. For C82G A111C A120G A145U C150U C169G the value was 0.0113; for C82G A111C A120G A145U C150U U176A, 0.0115; for C82G A111C A120G A145U C150U U176G, 0.00613. Under C82G A111C A120G A145U C150U U176C stands 0.0179; under C82G A111C A120G A145U C150G C169U U176A, 0.00847. For C82G A111C A120G A145U C150G C169U U176C the value was 0.0118; for C82G A111C A120G A145U C150G C169U U176G, 0.00536. Consider C82G A111C A120G A145U C169U, for which the reverse-splicing fitness was 0.0104.

For the variant C82G A111C A120G A145U C169A, the reverse-splicing fitness was determined as 0.00975. Consider C82G A111C A120G A145U C169G, for which the reverse-splicing fitness is 0.0132. On to C82G A111C A120G A145G C169G U176C, for which the reverse-splicing fitness is 0.0288.

Take C82G A111C A120G A145G C169G U176A: the reverse-splicing fitness amounted to 0.0188. For C82G A111C A120G A145G C169G U176G the value was 0.00514; for C82G A111C A120G A145U C169U U176G, 0.00395. Under C82G A111C A120G A145U C169U U176C stands 0.014; under C82G A111C A120G A145U C169U U176A, 0.0144; under C82G A111C A120G A145G C150U U176C, 0.0183. For C82G A111C A120G A145G C150U U176G the value was 0.00692; for C82G A111C A120G A145G C150U U176A, 0.0105. C82G A111C A120G A145G C150A C169U U176G: the reverse-splicing fitness stood at 0.00638.

C82G A111C A120G A145G C150A C169U U176C: the reverse-splicing fitness was 0.0159. On to C82G A111C A120G A145G C150A C169U U176A, for which the reverse-splicing fitness stood at 0.014. Under C82G A111C A120G C150A C169U U176A stands 0.022. Regarding C82G A111C A120G C150A C169U U176G, the reverse-splicing fitness is 0.00512. Under C82G A111C A120G C150A C169U U176C stands 0.0171; under C82G A111C A120G C150U, 0.0121; under C82G A111C A120G C150A, 0.0103. For C82G A111C A120G C150G the value was 0.00691; for C82G A111C A120G C150A C169A, 0.0116; for C82G A111C A120G C150A C169U, 0.00859. For C82G A111C A120G C150A C169G the value was 0.00935; for C82G A111C A120G A145G C150U C169A U176C, 0.0147. Take C82G A111C A120G A145G C150U C169A U176A: the reverse-splicing fitness is 0.0152. Take C82G A111C A120G A145G C150U C169A U176G: the reverse-splicing fitness came to 0.00695. For the variant C82G A111C A120G A145G C150U C169U U176G, the reverse-splicing fitness was 0.00501. Turning to C82G A111C A120G A145G C150U C169U U176A, the reverse-splicing fitness worked out at 0.0141.

With C82G A111C A120G A145G C150U C169U U176C, the reverse-splicing fitness is 0.0145.

For C82G A111C A120G A145G C150U, the reverse-splicing fitness is 0.0132. As for C82G A111C A120G A145G C150G, the reverse-splicing fitness was determined as 0.00751. For C82G A111C A120G C150G U176C the value was 0.0153. With C82G A111C A120G C150G U176A, the reverse-splicing fitness came to 0.00843. Under C82G A111C A120G C150G U176G stands 0.00284; under C82G A111C A120G A145G C169U, 0.0104; under C82G A111C A120G A145G C169A, 0.0114. Turning to C82G A111C A120G A145G C169G, the reverse-splicing fitness came to 0.0143.

The values above are taken from the RNAGym collection of RNA variant scans (doi:10.1093/molbev/msab373).
